Assay results as given in patent CN113912709A (SHENZHEN NATIONAL CLINICAL RES CENTER FOR INFECTIOUS …, dated 2022).
Substitutions are numbered along the chain they refer to.

B1: VacW-138 (antibody, V domains shown)
VH: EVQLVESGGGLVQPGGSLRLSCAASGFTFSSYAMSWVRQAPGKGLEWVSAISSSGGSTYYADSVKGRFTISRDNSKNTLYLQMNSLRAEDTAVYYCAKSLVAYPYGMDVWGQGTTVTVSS
VL: AIQLTQSPFSLSASVGDRVTITCRASQGISSALAWYQQKPGKAPKLLIYDASSLESGVPSRFSGSGSGTDFTLTISSLQPEDFATYFCQQVDTYQFTFGPGTKVDIK
B2: VacW-201 (antibody, V domains shown)
VH: EVQLVESGGGLVQPGGSLRLSCAASGFTFSSYWMNWVRQAPGKGLEWVANIKQDGSEKYYVDSVKGRFTISRDNAKNSLYLQMNSLRAEDTAVYYCARMEYPYGGVDYWGQGTLVTVSS
VL: NFMLTQPHSVSESPGKTVTISCTGSSGSIASNYVQWYQQRPGSAPTTVIYEDNQRPSGVPDRFSGSIDSSSNSASLTISGLKTEDEADYYCQSYDSSNRNWVFGGGTKLTVL
B3: VacW-215 (antibody, V domains shown)
VH: EVQLVESGGGLIQPGGSLRLSCAASGFTVSSNYMSWVRQAPGKGLEWVSVIYSGGSTYYADSVKGRFTISRDNSKNTLYLQMNSLRAEDTAVYYCARSTWLRGGFDYWGQGTLVTVSS
VL: B2 VL with R99H, N100F, W101Y, G105T, L109V
B4: VacW-212 (antibody, V domains shown)
VH: B2 VH with G55E, Y80F, A88V, V106I, S119A
VL: B2 VL
B5: VacW-105 (antibody, V domains shown)
VH: QVQLVQSGAEVKKPGSSVKVSCKASGGTFRSYTISWVRQAPGQGLEWMGRILPILGIANYAQKFQGRVTITADKSTSTAYMELSSLRSEDTAVYYCARVTGAPVESAAWFDPWGQGTLVTVSS
VL: not shown
B6: VacW-209 (antibody, V domains shown)
VH: QVQLVESGGGVVQPGRSLRLSCAASGFTFSSIAMHWVRQAPGKGLEWVAVMSFDGSIKYYGDSVKGRFTISRDNSKSTLYLQMNSLRAEDTAVYYCARGVQGYYDRSGYYNLDYNYGMDVWGQGTTVTVSS
VL: QSVLTQPPSVSGAPGQRVTISCTGSSSNIGAGYDVHWYQQLPGTAPKLLIYGNSNRPSGVPDRFSGSKSGTSASLAITGLQAEDEADYYCQSYDSSLSGWVFGGGTKLTVL

Each binder was assayed against T1, SARS-CoV-2 RBD protein L452R mutant (SARS-CoV-2, UniProt P0DTC2 319-541) (assay: SPR, Biacore 8K, RBD on CM5 chip, IgG injected, 1:1 model).
T1 construct: domain: RBD

B1 and B2 are within 1.5-fold of each other in Kd: 1.96 nM for the first, 1.57 nM for the second.

Compared with B3, B4 is 1.7-fold higher in Kd: 0.714 nM for the first, 1.2 nM for the second. The first binds more tightly here.

Compared with B5, B6 is 160-fold lower in Kd: 3.69 nM for the first, 0.0237 nM for the second. The second binds more tightly here.
